From patent US8389575B2, “Control of enzymatic peracid generation” (E.I. du Pont de Nemours and Company, priority 2008, dated 2013)

Test: Peracetic acid production by Thermotoga maritima MSB8 perhydrolase, control by bicarbonate buffer concentration
Assay type: biochemical
Details: 100 mM triacetin
Procedure: A cell extract of a transformant expressing perhydrolase from Thermotoga maritima MSB8 (KLP18/pSW207) was prepared by passing a suspension of cell paste (20 wt % wet cell weight) in 0.05 M potassium phosphate buffer (pH 7.0) containing dithiothreitol (1 mM) twice through a French press having a working pressure of 16,000 psi (˜110 MPa). The crude extract was then centrifuged at 20,000×g to remove cellular debris, producing a clarified cell extract that was assayed for total soluble protein (Bicinchoninic Acid Kit for Protein Determination, Sigma Aldrich catalog #BCA1-KT). The clarified extract was heated for 20 min at 75° C., followed immediately by cooling in an ice/water bath. The resulting mixture was centrifuged to remove precipitated protein, and the supernatant collected and assayed for total soluble protein as before. […] The supernatant was frozen in dry ice and stored at −80° C.
Reactions (2 mL total volume) containing triacetin, hydrogen peroxide and heat-treated, centrifuged cell extract supernatant (prepared as described above) were run at 25° C. using sodium bicarbonate buffer concentrations listed in Tables 9 and 10. A control reaction for each reaction condition was run to determine the concentration of peracetic acid produced by chemical perhydrolysis of triacetin by hydrogen peroxide in the absence of added extract protein. Determination of the concentration of peracetic acid in the reaction mixtures was performed according to the method described by Karst et al., supra. The peracetic acid concentrations produced in 1 min, 5 min and 30 min using either 250 mM or 100 mM hydrogen peroxide are listed in Table 9 and Table 10.

B1: Thermotoga maritima MSB8 perhydrolase: acetyl xylan esterase with perhydrolase activity from Thermotoga maritima MSB8 (SEQ ID NO: 16), cell extract of E. coli KLP18/pSW207 (protein, listed as Thermotoga maritima)
chain: MAFFDLPLEELKKYRPERYEEKDFDEFWEETLAESEKFPLDPVFERMESHLKTVEAYDVTFSGYRGQRIKGWLLVPKLEEEKLPCVVQYIGYNGGRGFPHDWLFWPSMGYICFVMDTRGQGSGWLKGDTPDYPEGPVDPQYPGFMTRGILDPRTYYYRRVFTDAVRAVEAAASFPQVDQERIVIAGGSQGGGIALAVSALSKKAKALLCDVPFLCHFRRAVQLVDTHPYAEITNFLKTHRDKEEIVFRTLSYFDGVNFAARAKIPALFSVGLMDNICPPSTVFAAYNYYAGPKEIRIYPYNNHEGGGSFQAVEQVKFLKKLFEKG
Q: For B1, which “PAA (ppm), 1 min” value (NaHCO3 0 mM, initial pH 5.0, 1 min, 100 mM H2O2, 50 μg/mL heated extract total protein) is on record?
A: The value was 125 ppm.

Q: What about the “PAA (ppm), 1 min” value (NaHCO3 0 mM, initial pH 5.0, 1 min, 250 mM H2O2, 50 μg/mL heated extract total protein) of the same molecule?
A: Its value is 233 ppm.

Q: What about the “PAA (ppm), 5 min” value (NaHCO3 0 mM, initial pH 5.0, 5 min, 100 mM H2O2, 50 μg/mL heated extract total protein) of the same molecule?
A: The value was 121 ppm.

Q: What about the “PAA (ppm), 5 min” value (NaHCO3 0 mM, initial pH 5.0, 5 min, 250 mM H2O2, 50 μg/mL heated extract total protein) of the same molecule?
A: Its value is 290 ppm.

Q: And the “PAA (ppm), 30 min” value (NaHCO3 0 mM, initial pH 5.0, 30 min, 100 mM H2O2, 50 μg/mL heated extract total protein)?
A: The value was 105 ppm.

Q: What about the “PAA (ppm), 30 min” value (NaHCO3 0 mM, initial pH 5.0, 30 min, 250 mM H2O2, 50 μg/mL heated extract total protein) of the same molecule?
A: The value was 289 ppm.

Q: And the “PAA (ppm), 1 min” value (NaHCO3 1.0 mM, initial pH 6.0, 1 min, 100 mM H2O2, 50 μg/mL heated extract total protein)?
A: The value was 238 ppm.

Q: And the “PAA (ppm), 1 min” value (NaHCO3 1.0 mM, initial pH 6.0, 1 min, 250 mM H2O2, 50 μg/mL heated extract total protein)?
A: Its value is 690 ppm.

Q: And the “PAA (ppm), 5 min” value (NaHCO3 1.0 mM, initial pH 6.0, 5 min, 100 mM H2O2, 50 μg/mL heated extract total protein)?
A: The value was 388 ppm.

Q: What about the “PAA (ppm), 5 min” value (NaHCO3 1.0 mM, initial pH 6.0, 5 min, 250 mM H2O2, 50 μg/mL heated extract total protein) of the same molecule?
A: Its value is 980 ppm.

Q: And the “PAA (ppm), 30 min” value (NaHCO3 1.0 mM, initial pH 6.0, 30 min, 100 mM H2O2, 50 μg/mL heated extract total protein)?
A: Its value is 361 ppm.

Q: What about the “PAA (ppm), 30 min” value (NaHCO3 1.0 mM, initial pH 6.0, 30 min, 250 mM H2O2, 50 μg/mL heated extract total protein) of the same molecule?
A: The value was 981 ppm.

Q: And the “PAA (ppm), 1 min” value (NaHCO3 2.5 mM, initial pH 6.5, 1 min, 100 mM H2O2, 50 μg/mL heated extract total protein)?
A: The value was 319 ppm.

Q: What about the “PAA (ppm), 1 min” value (NaHCO3 2.5 mM, initial pH 6.5, 1 min, 250 mM H2O2, 50 μg/mL heated extract total protein) of the same molecule?
A: The value was 817 ppm.

Q: And the “PAA (ppm), 5 min” value (NaHCO3 2.5 mM, initial pH 6.5, 5 min, 100 mM H2O2, 50 μg/mL heated extract total protein)?
A: The value was 755 ppm.

Q: What about the “PAA (ppm), 5 min” value (NaHCO3 2.5 mM, initial pH 6.5, 5 min, 250 mM H2O2, 50 μg/mL heated extract total protein) of the same molecule?
A: Its value is 1758 ppm.

Q: And the “PAA (ppm), 30 min” value (NaHCO3 2.5 mM, initial pH 6.5, 30 min, 100 mM H2O2, 50 μg/mL heated extract total protein)?
A: Its value is 710 ppm.

Q: What about the “PAA (ppm), 30 min” value (NaHCO3 2.5 mM, initial pH 6.5, 30 min, 250 mM H2O2, 50 μg/mL heated extract total protein) of the same molecule?
A: Its value is 1748 ppm.

Q: And the “PAA (ppm), 1 min” value (NaHCO3 5.0 mM, initial pH 6.5, 1 min, 100 mM H2O2, 50 μg/mL heated extract total protein)?
A: Its value is 330 ppm.

Q: And the “PAA (ppm), 1 min” value (NaHCO3 5.0 mM, initial pH 6.5, 1 min, 250 mM H2O2, 50 μg/mL heated extract total protein)?
A: Its value is 735 ppm.

Q: What about the “PAA (ppm), 5 min” value (NaHCO3 5.0 mM, initial pH 6.5, 5 min, 100 mM H2O2, 50 μg/mL heated extract total protein) of the same molecule?
A: Its value is 972 ppm.

Q: What about the “PAA (ppm), 5 min” value (NaHCO3 5.0 mM, initial pH 6.5, 5 min, 250 mM H2O2, 50 μg/mL heated extract total protein) of the same molecule?
A: Its value is 1825 ppm.

Q: What about the “PAA (ppm), 30 min” value (NaHCO3 5.0 mM, initial pH 6.5, 30 min, 100 mM H2O2, 50 μg/mL heated extract total protein) of the same molecule?
A: The value was 1323 ppm.

Q: And the “PAA (ppm), 30 min” value (NaHCO3 5.0 mM, initial pH 6.5, 30 min, 250 mM H2O2, 50 μg/mL heated extract total protein)?
A: Its value is 2222 ppm.

Q: And the “PAA (ppm), 1 min” value (NaHCO3 10 mM, initial pH 7.0, 1 min, 250 mM H2O2, 50 μg/mL heated extract total protein)?
A: Its value is 804 ppm.

Q: What about the “PAA (ppm), 5 min” value (NaHCO3 10 mM, initial pH 7.0, 5 min, 250 mM H2O2, 50 μg/mL heated extract total protein) of the same molecule?
A: The value was 1951 ppm.

Q: And the “PAA (ppm), 30 min” value (NaHCO3 10 mM, initial pH 7.0, 30 min, 250 mM H2O2, 50 μg/mL heated extract total protein)?
A: The value was 2698 ppm.

Q: And the “PAA (ppm), 1 min” value (NaHCO3 10 mM, initial pH 8.1, 1 min, 100 mM H2O2, 50 μg/mL heated extract total protein)?
A: The value was 407 ppm.

Q: And the “PAA (ppm), 5 min” value (NaHCO3 10 mM, initial pH 8.1, 5 min, 100 mM H2O2, 50 μg/mL heated extract total protein)?
A: Its value is 1075 ppm.

Q: What about the “PAA (ppm), 30 min” value (NaHCO3 10 mM, initial pH 8.1, 30 min, 100 mM H2O2, 50 μg/mL heated extract total protein) of the same molecule?
A: Its value is 1763 ppm.

Q: And the “PAA (ppm), 1 min” value (NaHCO3 25 mM, initial pH 8.1, 1 min, 100 mM H2O2, 50 μg/mL heated extract total protein)?
A: The value was 465 ppm.

Q: And the “PAA (ppm), 1 min” value (NaHCO3 25 mM, initial pH 8.1, 1 min, 250 mM H2O2, 50 μg/mL heated extract total protein)?
A: Its value is 848 ppm.

Q: And the “PAA (ppm), 5 min” value (NaHCO3 25 mM, initial pH 8.1, 5 min, 100 mM H2O2, 50 μg/mL heated extract total protein)?
A: Its value is 1369 ppm.

Q: What about the “PAA (ppm), 5 min” value (NaHCO3 25 mM, initial pH 8.1, 5 min, 250 mM H2O2, 50 μg/mL heated extract total protein) of the same molecule?
A: The value was 2342 ppm.

Q: What about the “PAA (ppm), 30 min” value (NaHCO3 25 mM, initial pH 8.1, 30 min, 100 mM H2O2, 50 μg/mL heated extract total protein) of the same molecule?
A: The value was 2217 ppm.

Q: What about the “PAA (ppm), 30 min” value (NaHCO3 25 mM, initial pH 8.1, 30 min, 250 mM H2O2, 50 μg/mL heated extract total protein) of the same molecule?
A: The value was 3251 ppm.
